Assay: soluble fraction after stress (log2 fold change); higher = more stays soluble; pooled small domains, quantitative proteomics
Settings: stress: 50 degC
In short: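 Pooled custom libraries of small protein domains were measured in a high-throughput format, with quantitative proteomics as the read-out. Each library was stressed at 50°C. Aggregation propensity is given as the base-two logarithm of the fold change in how much of each protein stays soluble after the stress. Higher values mean a larger share of the protein remains in solution.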

Row | Sequence | soluble fraction (log2)
1 | HMPVSVAEQKQILAEALQERGHATFRELIENADNRMIVVGRFLALLELYRDGTVRFEQERALGELTIHWEE | -0.318
2 | HMPYIVNHIHLKSEDPKITADWFVKAFNFEIVSDVVRHFGDRFIVTKAEGGMTINISGVRDGEEL | -0.0655
3 | HMPYNNLADAPASWKKLDDTPLTLGQVNWIAKIYDALVAKGMEKGAAAGTAISRFKKSFKVADGKWVQV | -0.0698
4 | HMPYNRRYLISNADGALYTVEENGLVKLEETNLTAELFETRGMQDIPDGKLLITLHDPTILYWHDSENLFP | -1.19
5 | HMPYSPTPGSAPARLIAHLQEHGDSVNRTAIAELLQVDRKNVHNYLARAVTHGLLLRHGGGAYSLP | 0.086
6 | HMQADEENPKYPVITDGVIQLEVLESIDKTEEWLVERLAKDGYNNVSEIFIAEYENGNLSIVT | 0.148
7 | HMQADPYTVLGVLRDVTDGELKREYRKLVREHHPDALIAQGVPQEFVDIANNKLAVINAAYERIAKQRGL | 0.00775
8 | HMQAGILTDTAAKNARIKKIDTERLEAELDQKRIVIVTGFQGVDRNQNITTLGRGGSDTSAVALAAAVSIT | 0.185
9 | HMQAKDVEIPNFVGKTLAEANADNKDNFNFVVESKYDASKELGVILEQEPAADSKLVKSGSQITLKV | ≥ 0.62
10 | HMQALDNNDALEEIIKKVITENPSQVTEFRNGKDSLMNFLVGKVMAASGGKANPKTLPETIEKIIK | 0.12
11 | HMQAMDYEGFKKEILKMSDIDLSLYKEKQMKRRIDSLIRKNGYEHYEDYVQALKQDSGLYNEFINYLTI | 0.439
12 | HMQANLPFSELLADVDRGLISDVTIKGDQVSGHYTDGRTFNTFIPPEADLVRRLTEKNVRIAAVPD | -0.111
13 | HMQAPAFDYSKVQEGVTVNHKIFGDGTVSWIDKARKYIRVQFSVGEKMFTMETAFVQGFLSL | -0.348
14 | HMQAPVDPIVLGKMGSSYGIRGWLRVFSSTEDAESIFDYQPWFIQKAGQWQQVQLESWKHHNQDMIIKLN | 0.0749
15 | HMQARLPFSFAKRHGVILLAATGEGQSDVIYKSGFDIGALAEVRRFVAGEIALKEVDGPSFDRQLTLTYQN | -1.77
16 | HMQARSQQTIQTLFKAAAQILDKEGEAGLSTNKVAAAAGFSIGTLYQYFPSKEVLIQAMAAR | -0.0788
17 | HMQASISVDEAKSIALNYAKFTADQVVYTKSELDYDDGRAEYEIEFYAGGKEYSFTIDAVSGTVLEMEI | -1.7
18 | HMQATDEEIENFTSSAITAYKLTKEEGYIISMRDMKPIMEIVKTEYPMANGKVVSKVMNNYING | -0.0668
19 | HMQDELSSSVIEEAVVVLLLRAANIDGKKDEQEIEAIKRLIIQQFNYDEEKADILITSASEK | -0.218
20 | HMQDGTILPGQKTAIRSLATSGGYDSQDLDTYLATTYGKSIDGLTRTEGADVIKAFQAGTVAK | 0.233
21 | HMQDLEIKINLGMTYYEVREAIGSPDIIDKINQYGRDFQMWTYYIDDKTKRYYFEDHLLTKI | -3.33
22 | HMQDLPPIHLSRGMTDYTLVRSRRRTLSMELKRDGTVVVHAPLRLGVEKIDAFVAAHEAWLARARTRQAER | -2.41
23 | HMQDNPELVARIEKAAARGTSSMSDWERSFMGSLLDSAKKWGRLTAKQHEVFQRIEKKTDPAHQAAVS | 0.0476
24 | HMQDPRITRTRGLILQAFDALLVEKGFHALSVQAIAGRAGINRATFYAHFADKYALLDTSIQE | 0.268
25 | HMQDREKNIAEGRDIIEHEFMRLGISLSRYDLDGLASKLNVKAGDDVLAGVGAGDIRVSQIISQLG | -0.00799
26 | HMQDTVKNVFGAFTIFTDKPFAIGDTINVNGLEGTVVDVGMRSTQILGYDRRITSYPNYKITDSSIVNISS | -0.0701

Row | Sequence | soluble fraction (log2)
27 | HMQDVVFTVDKDQTGAEIGDMLYEKGIISSPTTFRLALRLTGSMDKLQQGYYQIPQNASLRQVIALLQKG | -0.393
28 | HMQDYYTQSDFARYLEDKGIHFPQNKIAVYRKRGKFPKEDLVVAGTPYWSKYTVESFAKHLLEQQN | 0.0719
29 | HMQEAATSLNAKILAKLRENNGTLAVSDKSDPALISSLFGVSKGNFKKAIGALYKNGQIVIHADRIEL | -0.436
30 | HMQEDQKTSIFDIEGVEKGVASVLSSIKVEIVSDLLEADMDDILKSGKISEDDLDGVYEAVQNFVER | 0.42
31 | HMQELNDQQRLAILNEWNNRATNPPSLLELVRVAFPDAEGADGRSWHGKKVKEFLSTRQIKARAS | 0.119
32 | HMQENFYMILESEERRVLDVLVADQPESVATFLKLVSPFPNYKIILEHINEKALDFYEETVI | -0.303
33 | HMQESTILPAQKSAISSLATSAGFSSENLKRYLLQNYGVDLKDLTRSQGAEVIKAFQSGNVSKP | 0.0882
34 | HMQETPAMLAMKELPTEDEQRIYMMLQEDYDSVLLVKTIRNAFSQNPQLTRQQLLPIILTWLMT | -1.14
35 | HMQGATVYIKSDDIGKTTNEQGSFNFDKLKKNRYTLEISFIGYETKNLQAYTDRENIVQLNRKS | 0.248
36 | HMQGEVPYSQFLTEVDRGDVQSVVIEGNNISGFYKNSSTAFTVVAPDDPKLVERLMEQGVEVKARPV | 0.0205
37 | HMQGEVVTNRSVIDMSRAGLSADIIRAKILRSDTNFDVTAKALIELKESGVPDDIIALMLERADS | 0.128
38 | HMQGIPVTVTAERANLRSGPGTSFDKLGQVVQGDVLTLLEVQNDWYKVKTAEGKTAFVAAYLVNSP | 0.0205
39 | HMQGQADFTQGIANFTQYPVGSRITVFTLEGRRVAVVEIGKDGTAQLDMRNKPAGVYIVNTGKQSFKWLK | -1.26
40 | HMQGRIYLNPDLAEKLRAQYAAYPHWSYLLHTENLGALVRKTESLGPMPSYSTILRYMHANDMRKRNKP | -1.6
41 | HMQGVNLTETEKNFIAQVLSPLLKQGQSLYQIRTNHPEIKLSVKTLYTYIESGIFKESGINNFSLRRQ | 0.0431
42 | HMQILNVFSKHGIKPISPQIGDKFDPQLHEAMFEAPVPGTKAGDIIEVSSEGFMLYDRLLRPAHVGVSSN | 0.0206
43 | HMQILPAFLPENPELRARLANHSLEELTEILKQYKTLHNSTDVDTVKRAIRAIEIEEYYAVHPV | -0.777
44 | HMQINLKQSSDEELVKIITVQVHHYEPHTVKAAEAEIERRGIDKMRMAHLVKKVAQENTAVQEIQD | 0.18
45 | HMQISDDSELIKIVDNILANSQKQIDDYHNGKTNLFGFFVGQVMKETKGKANPVKVNEILKDKL | 0.00641
46 | HMQISDSSLIAKTVATVILENPEAVSDYLGGKHSVVRFMVGQIMKKTQGKANPKMATEMLETALNDL | -1.13
47 | HMQISDTTELSTLITKVLSEQSDALVDFKNPKKQKQVIGYLTGQVLRASQGKANPGLVRSLLEEQLSALDS | 0.124
48 | HMQISMQNIASVKIDDLSDEQIQEFSTKYTAAGYSFPDVENVAKQKGMPSSEIEKLRQRVLTAQNTQEK | -0.163
49 | HMQISSSEVLEKVVDEILSANPKSIEDYKNGKLQAAGFLMGQVMKATKGQANPAVAKELIEAKLKD | 0.419
50 | HMQISYDVPNLIGKSYEEVMTDPSILGEHFTVVLGETKTDEDTDAGVILHQDPAADSKVQDEVTPITVTVS | 0.42
51 | HMQITDTEAIATTLDEIIAANPKEWERLKAGQEQLVKFFVGQVMRVTKGRANPQVVNDLLKERL | -0.075
52 | HMQITNEGQIKLVISEVLNENQEQKKQYLSGKEQVLGYLIGKVMQKTKGKANPKLVNDLMIKELS | 0.257

Row | Sequence | soluble fraction (log2)
53 | HMQITSTDEIEKMIDELIAANPEQTKQYQNGNHKVAGWFVGQMMKASKGKANPQMVNNLLQKKL | 0.0271
54 | HMQITTVSPKNYAEAELIGQRFREGNPVVMDLSKLDSDLGQRLVDFASGLVFALNGTVERIAKKVFLLSP | -0.943
55 | HMQIVHKHLQLQPDQGALRAALYSHKAVVAEQVNEQGAINLEIKLAESDFLRLLKSSGLKLQDLVSLS | -0.205
56 | HMQKAQEYILVDIKGEVQTPGVYKLPVNSRVIDAIEASGGLTKKAVTTYINLSKTLKDENVIIINKKSEL | -0.2
57 | HMQKITPDNWTYIRSLIRQKWSPDQIDQWLKKHPDVGFTVSRETIYQYVKEDRQKDGDLYLSLRRAGKSY | -1.71
58 | HMQKLKINKYKDPKGEIRYYIASTIRNGNKSSTHNLLSLGKHSDLLKEHSDVEAYLKERLNEAMESGI | -0.145
59 | HMQKPDIEVDFAEGDMVVVTGGAWKDTAGVITGINMQKQTVTINVELFGRETPVEISFTEIKKA | 0.00574
60 | HMQKVPDAFKAEQVQTLITRLGVSRAELARTLDVSLSTVNKWASGAVEPKGSALVLLKVLWMHGFKAL | -2.14
61 | HMQLDDDQKEELILKLIDSLDTTKKGAPLTELAREAAKSNIGESELEEITTSLLDKGLVYEPTIGKMKR | 0.216
62 | HMQLDLNENEKIIFEILQNNKTMQLSNLKTQTELSNKGWDKAIKSLTKQGLAKVSKIDNELIVEFL | -0.249
63 | HMQLKFTDLRKEILRMIWEGHGPQKAYDLLNKLQQTNPSAKPATVYRALDFLIGNGFIHKVASLNAFVG | -0.668
64 | HMQLKKDTILSYIEEKLIDSYNSNKGFTTQEISVALNMQRTNVSAILNNLVKENKLVKTKGKPVRYFLSG | -0.708
65 | HMQLTPAQHAILAHALEHSDGKIVWFPDNIKGGARKKVLDGLLNRALITTDGTDWFVAAEGYDAMGR | -0.227
66 | HMQLTVAVLIKNISKGQVISQGFLGFEARPERQIRGAYTNISEVLGRKAKSNIAVGTILKARHLDT | -2.94
67 | HMQNAMQKELIDAFQKAYPDLDITKIELVYGTYYEVEAMNSTTEFTYRYDQNSKTFILAEQDNADP | -0.202
68 | HMQNELAEARSQLAERKNIDQAKLILMKKRNISEPEAYKLLRSHAMQTNRRVAEVAESIITAESLLG | 0.0394
69 | HMQNGNLVDVYLNWRGKYYAIKMFFPNSKMPRRSDVQDQIVKVYPDARVQSFQVSKYVPGQPFL | -1.62
70 | HMQNLSELAYVNLRDALMQGQMKPGEELPLRPISRSFGISATPMREALLRLVTESALEMDSRGRISVP | -0.341
71 | HMQNPYDTLGVSRDSTDAEIKKAYRKLAMEHHPDKGGDSQRFAEINNAYDNIKDMSSRQNFENDPSNFQ | 0.288
72 | HMQNVFARKNLTSVSVDKLGEEEILLFKQSFESKNLTSSEALRDLSKKGMSEAELRKLKVRLTQL | -0.074
73 | HMQNWFADPKFEMFEDYGDAQSFYDTETKNIYVVMAEYGQKGSNTIQEITPDSEEYIPNYEKYKEYMENK | -0.387
74 | HMQNYLEFIGNELKALTSIPSPSGYTKDVAAYLMKTLSDMGYEPQLSNKGNVFVTIGGEGNPLVLAAHVD | -0.0984
75 | HMQNYLEVLRLHELGMGQRKIAQQVHTSRDTIRKIIAIAENQGLNYSNLIGKTDNELSKVFG | -0.307
76 | HMQPAGEGAILRYLSSGAVKGIGPVMAREIVRRFGTDTFRVMEQEPEKLLKVKGITEQRLQTIMESYQD | -0.0857

— the domain aggregation screens of Martell et al. (2025)
